Measured values: patent US20250270302A1

How the values were obtained:
[1] = molecular target: human Gremlin-1 (huGREM1), recombinant protein (human) (UniProt O60565); assay: cell-based or functional assay
[2] = molecular target: human Gremlin-1 (huGREM1), recombinant protein (human) (UniProt O60565); assay: binding ELISA on huGREM1, hybridoma clone selection

UniProt O60565, sequence (O60565 25-184 limits assumed): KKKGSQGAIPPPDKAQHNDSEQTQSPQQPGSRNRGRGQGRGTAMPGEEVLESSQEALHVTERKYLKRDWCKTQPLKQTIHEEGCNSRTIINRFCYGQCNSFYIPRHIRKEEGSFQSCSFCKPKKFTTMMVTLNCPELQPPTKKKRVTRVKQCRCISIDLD

EC50, in vitro Gremlin-1 neutralization assay (ALP activity in ATDC5 cells) [1]: 26.4 nM
OD 492 nm [2]: > 0.9 OD 492 nm
B1: anti-Gremlin-1 antibody 14-D10-2 (antibody, from a related filing, IgG2b, V domains shown)
VH: EVQLQQSGPELVKPGASVKISCKASGYSFTGYYMHWVKQSHGNILDWIGYFFPYNGFSNCNQKFKGKATLTVDKSSSTAYMELRSLTSEDSAVYYCARGGLGRGYFDVWGTGTTVTVSS
VL: DIQMTQSPSYLSVSLGGRVTITCKASDHINNWLAWYQQKPGNAPRLLISGATSLETGVPSRFSGSGSGKDYTLSITSLQTEDVATYYCQQYWSSPRTFGGGTKLEIK
